{"source": "patent US20230103885A1", "about": "(CRISPR THERAPEUTICS, published 2023)", "binders": {"B1": {"name": "mouse anti-FMC63-scFv monoclonal antibody 29E4B5 (antibody, mouse IgG1, kappa, V domains shown)", "VH": "EVKLLQSGGGLVQPGGSLKLSCAASGIDFSRYWMSWVRRAPGKGLEWIGEINLDSSTKNYAPSLKDKFIISRDNAKNTLYLQMSKVRSEDTALYYCARNYVGMDYWGQGTSVTVSS", "VL": "DIVLTQSPASLAVSLGQRATISCRASKSVSSSDYTYMHWYQQKPGQPPKLLIYLASNLESGVPARFSGSGSGTDFTLNIHPVEEEDAATYYCQHSRELPPTFGGGTKLEIKR", "notes": "Hybridoma-derived antibody (culture supernatant, microscale purified, or protein A purified native lot), isotype IgG1, kappa; These are left out by the residue ranges; also called 29E4B5-1; 29E4B5-1 (Native)"}}, "key": {"[1]": {"molecular_target": "T1, anti-CD19 CAR comprising the anti-CD19 scFv of SEQ ID NO:1", "T1 construct": "also called anti-CD19 chimeric antigen receptor; anti-CD19 CAR T cells", "assay": "flow cytometry on anti-CD19 CAR T cells, dilution 1:1600", "from_the_text": "(§1) The 29E4B5 antibodies produced using the first or the second method were compared with a reference anti-FMC63-scFv antibody (rec_mab3) for the ability to bind to the anti-CD19 CAR T cells using flow cytometry. Both methods produced 29E4B5 antibodies with higher affinity to the anti-CD19 cells than rec_mab3, showing higher CAR positive percentage even at 1:6,400 dilutions (Table 9)."}, "[2]": {"molecular_target": "T2, Recombinant FMC63-scFv protein", "T2 construct": "also called His-tagged single-chain variable fragment of mouse anti-human CD19 antibody FMC63; coating antigen A", "T2 sequence (scFv, as listed by the source)": "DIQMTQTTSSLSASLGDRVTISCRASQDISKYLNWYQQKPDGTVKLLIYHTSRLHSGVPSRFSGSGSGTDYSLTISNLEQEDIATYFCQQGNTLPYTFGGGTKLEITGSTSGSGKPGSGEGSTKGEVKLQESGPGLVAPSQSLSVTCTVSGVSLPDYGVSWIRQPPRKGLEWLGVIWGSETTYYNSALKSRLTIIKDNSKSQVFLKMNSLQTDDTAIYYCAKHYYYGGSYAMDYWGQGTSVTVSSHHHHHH", "assay": "indirect ELISA, purified native antibody at 250 ng/ml (1:4,000)", "experimental": "(§2) In the first (native) method, hybridoma cells (29E4B5) were cultured in low IgG culture medium in a roller bottle for 10 days. The supernatants were collected and protein A purified to obtain purified antibodies. The purified antibodies were analyzed for the ability to bind the FMC63-scFv protein and anti-CD19 CAR T cells using ELISA (Table 8).\n(§3) A: Recombinant FMC63-scFv protein B: […] (FMC63-scFv linker peptide)(SEQ ID NO: 6) C: His-tagged protein D: Total human IgG The titer was the highest dilution where the Signal/Blank (S/B) ratio was ≥2.1. OD₄₅₀ for Blank was the average of two technical replicates. The starting concentration was 1 mg/ml, and the corresponding dilution ratio was calculated based on the actual concentration."}, "[3]": {"molecular_target": "T3, FMC63-scFv linker peptide", "T3 construct": "also called coating antigen B", "T3 peptide": "TGSTSGSGKPGSGEGSTKG", "assay": "indirect ELISA, purified native antibody at 250 ng/ml (1:4,000)", "experimental": "as §2, §3"}, "[4]": {"molecular_target": "T4, irrelevant His-tagged protein", "T4 construct": "also called coating antigen C", "assay": "indirect ELISA, purified native antibody at 250 ng/ml (1:4,000)", "experimental": "as §2, §3"}, "Total human IgG [5]": {"molecular_target": "T5, Total human IgG (human)", "T5 construct": "also called coating antigen D", "assay": "indirect ELISA, purified native antibody at 250 ng/ml (1:4,000)", "experimental": "as §2, §3"}, "[6]": {"molecular_target": "T2, Recombinant FMC63-scFv protein", "assay": "indirect ELISA, purified native antibody at 7.81 ng/ml (1:128,000)", "experimental": "as §2, §3"}, "[7]": {"molecular_target": "T3, FMC63-scFv linker peptide", "assay": "indirect ELISA, purified native antibody at 7.81 ng/ml (1:128,000)", "experimental": "as §2, §3"}, "[8]": {"molecular_target": "T4, irrelevant His-tagged protein", "assay": "indirect ELISA, purified native antibody at 7.81 ng/ml (1:128,000)", "experimental": "as §2, §3"}, "Total human IgG [9]": {"molecular_target": "T5, Total human IgG", "assay": "indirect ELISA, purified native antibody at 7.81 ng/ml (1:128,000)", "experimental": "as §2, §3"}, "[10]": {"molecular_target": "T1, anti-CD19 CAR comprising the anti-CD19 …", "assay": "flow cytometry on anti-CD19 CAR T cells, dilution 1:200", "from_the_text": "as §1"}, "[11]": {"molecular_target": "T2, Recombinant FMC63-scFv protein", "assay": "indirect ELISA, purified native antibody at 500 ng/ml (1:2,000)", "experimental": "as §2, §3"}, "[12]": {"molecular_target": "T3, FMC63-scFv linker peptide", "assay": "indirect ELISA, purified native antibody at 500 ng/ml (1:2,000)", "experimental": "as §2, §3"}, "[13]": {"molecular_target": "T4, irrelevant His-tagged protein", "assay": "indirect ELISA, purified native antibody at 500 ng/ml (1:2,000)", "experimental": "as §2, §3"}, "Total human IgG [14]": {"molecular_target": "T5, Total human IgG", "assay": "indirect ELISA, purified native antibody at 500 ng/ml (1:2,000)", "experimental": "as §2, §3"}, "[15]": {"molecular_target": "T2, Recombinant FMC63-scFv protein", "assay": "indirect ELISA, purified native antibody at 1.95 ng/ml (1:512,000)", "experimental": "as §2, §3"}, "[16]": {"molecular_target": "T3, FMC63-scFv linker peptide", "assay": "indirect ELISA, purified native antibody at 1.95 ng/ml (1:512,000)", "experimental": "as §2, §3"}, "[17]": {"molecular_target": "T4, irrelevant His-tagged protein", "assay": "indirect ELISA, purified native antibody at 1.95 ng/ml (1:512,000)", "experimental": "as §2, §3"}, "Total human IgG [18]": {"molecular_target": "T5, Total human IgG", "assay": "indirect ELISA, purified native antibody at 1.95 ng/ml (1:512,000)", "experimental": "as §2, §3"}, "[19]": {"molecular_target": "T1, anti-CD19 CAR comprising the anti-CD19 …", "assay": "flow cytometry on anti-CD19 CAR T cells, dilution 1:100", "from_the_text": "as §1"}, "[20]": {"molecular_target": "T2, Recombinant FMC63-scFv protein", "assay": "indirect ELISA, subclone culture supernatant on coated antigen"}, "[21]": {"molecular_target": "T3, FMC63-scFv linker peptide", "assay": "indirect ELISA, subclone culture supernatant on coated antigen"}, "[22]": {"molecular_target": "T4, irrelevant His-tagged protein", "assay": "indirect ELISA, subclone culture supernatant on coated antigen"}, "Total human IgG [23]": {"molecular_target": "T5, Total human IgG", "assay": "indirect ELISA, subclone culture supernatant on coated antigen"}, "[24]": {"molecular_target": "T2, Recombinant FMC63-scFv protein", "assay": "indirect ELISA, purified native antibody; highest dilution with Signal/Blank >=2.1", "experimental": "as §2, §3"}, "[25]": {"molecular_target": "T3, FMC63-scFv linker peptide", "assay": "indirect ELISA, purified native antibody; highest dilution with Signal/Blank >=2.1", "experimental": "as §2, §3"}, "[26]": {"molecular_target": "T4, irrelevant His-tagged protein", "assay": "indirect ELISA, purified native antibody; highest dilution with Signal/Blank >=2.1", "experimental": "as §2, §3"}, "Total human IgG [27]": {"molecular_target": "T5, Total human IgG", "assay": "indirect ELISA, purified native antibody; highest dilution with Signal/Blank >=2.1", "experimental": "as §2, §3"}}, "data": [{"binder": "B1", "values": [{"measurement": "% CAR+", "setting": "[1]", "value": 67.9, "unit": "%"}, {"measurement": "OD450", "setting": "[2]", "value": 1.85, "unit": "OD450"}, {"measurement": "OD450", "setting": "[3]", "value": 0.062, "unit": "OD450"}, {"measurement": "OD450", "setting": "[4]", "value": 0.054, "unit": "OD450"}, {"measurement": "OD450", "setting": "Total human IgG [5]", "value": 0.079, "unit": "OD450"}, {"measurement": "OD450", "setting": "[6]", "value": 0.676, "unit": "OD450"}, {"measurement": "OD450", "setting": "[7]", "value": 0.076, "unit": "OD450"}, {"measurement": "OD450", "setting": "[8]", "value": 0.06, "unit": "OD450"}, {"measurement": "OD450", "setting": "Total human IgG [9]", "value": 0.064, "unit": "OD450"}, {"measurement": "% CAR+", "setting": "[10]", "value": 67.9, "unit": "%"}, {"measurement": "OD450", "setting": "[11]", "value": 1.89, "unit": "OD450"}, {"measurement": "OD450", "setting": "[12]", "value": 0.059, "unit": "OD450"}, {"measurement": "OD450", "setting": "[13]", "value": 0.059, "unit": "OD450"}, {"measurement": "OD450", "setting": "Total human IgG [14]", "value": 0.08, "unit": "OD450"}, {"measurement": "OD450", "setting": "[15]", "value": 0.245, "unit": "OD450"}, {"measurement": "OD450", "setting": "[16]", "value": 0.077, "unit": "OD450"}, {"measurement": "OD450", "setting": "[17]", "value": 0.085, "unit": "OD450"}, {"measurement": "OD450", "setting": "Total human IgG [18]", "value": 0.076, "unit": "OD450"}, {"measurement": "% CAR+", "setting": "[19]", "value": 69.2, "unit": "%"}, {"measurement": "OD450 nm", "setting": "[20]", "value": 1.5, "unit": "OD450"}, {"measurement": "OD450 nm", "setting": "[21]", "value": 0.087, "unit": "OD450"}, {"measurement": "OD450 nm", "setting": "[22]", "value": 0.201, "unit": "OD450"}, {"measurement": "OD450 nm", "setting": "Total human IgG [23]", "value": 0.178, "unit": "OD450"}, {"measurement": "Titer", "setting": "[24]", "value": "512000 dilution (1:x)"}, {"measurement": "Titer", "setting": "[25]", "value": "< 1000 dilution (1:x)"}, {"measurement": "Titer", "setting": "[26]", "value": "< 1000 dilution (1:x)"}, {"measurement": "Titer", "setting": "Total human IgG [27]", "value": "< 1000 dilution (1:x)"}]}]}
